Reference: patent US5352595, “Myod regulatory region” (Fred Hutchinson Cancer Research Center)

Target: MyoD:E12 heterodimer (UniProt P10085;P15806 P10085:1-318,P15806:1-651)
Experiment: EMSA

Chain of MyoD:E12 heterodimer (P10085 whole entry, chain 1 of 2): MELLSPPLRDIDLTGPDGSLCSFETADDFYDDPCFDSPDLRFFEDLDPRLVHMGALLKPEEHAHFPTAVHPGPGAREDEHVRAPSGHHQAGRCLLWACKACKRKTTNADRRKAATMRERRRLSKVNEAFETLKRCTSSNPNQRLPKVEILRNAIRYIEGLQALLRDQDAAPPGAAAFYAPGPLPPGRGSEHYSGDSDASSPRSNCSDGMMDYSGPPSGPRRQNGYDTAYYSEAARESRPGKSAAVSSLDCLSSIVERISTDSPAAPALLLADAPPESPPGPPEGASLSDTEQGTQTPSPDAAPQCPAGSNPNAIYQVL
Chain of MyoD:E12 heterodimer (P15806 whole entry, chain 2 of 2): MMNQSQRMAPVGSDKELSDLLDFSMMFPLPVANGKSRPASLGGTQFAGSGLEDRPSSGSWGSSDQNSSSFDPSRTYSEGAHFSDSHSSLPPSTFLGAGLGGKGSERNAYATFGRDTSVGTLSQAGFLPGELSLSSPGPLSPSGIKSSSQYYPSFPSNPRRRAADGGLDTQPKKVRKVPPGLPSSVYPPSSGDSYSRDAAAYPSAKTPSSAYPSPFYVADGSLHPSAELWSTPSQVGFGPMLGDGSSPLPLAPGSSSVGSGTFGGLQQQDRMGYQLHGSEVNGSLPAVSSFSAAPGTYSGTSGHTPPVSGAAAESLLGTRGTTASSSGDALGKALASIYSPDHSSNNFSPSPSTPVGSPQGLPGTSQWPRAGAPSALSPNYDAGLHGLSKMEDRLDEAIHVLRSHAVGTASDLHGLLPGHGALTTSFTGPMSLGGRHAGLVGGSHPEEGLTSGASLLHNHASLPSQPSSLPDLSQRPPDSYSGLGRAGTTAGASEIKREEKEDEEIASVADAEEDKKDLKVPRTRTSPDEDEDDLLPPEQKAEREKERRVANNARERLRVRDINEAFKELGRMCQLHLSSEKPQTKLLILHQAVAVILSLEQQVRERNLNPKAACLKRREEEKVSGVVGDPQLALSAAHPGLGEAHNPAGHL

B1: myoD PRR A site (-190) (dsDNA)
DNA 1: GGCAGCTGCC
DNA 2: GGCAGCTGCC
  binding result: binds
